# Measured values taken from US20220340673A1 (HARBOUR BIOMED SUZHOU, published 2022).
# T1: human BCMA on cells (HEK293T/huBCMA; NCI-H929) (human, UniProt Q02223 1-184)
# T1 construct: whole, on cells; also called human BCMA molecules on NCI-H929 cell line
# T1 sequence (looked up): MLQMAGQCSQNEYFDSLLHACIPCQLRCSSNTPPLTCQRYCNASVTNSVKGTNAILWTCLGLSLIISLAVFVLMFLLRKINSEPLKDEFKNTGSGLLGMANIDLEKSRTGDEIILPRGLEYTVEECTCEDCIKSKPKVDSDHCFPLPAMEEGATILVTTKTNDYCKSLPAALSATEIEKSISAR
# T2: human BCMA protein with Fc Tag (ACRO, Cat#: BC7-H5254) (human, UniProt Q02223 1-54)
# T2 construct: Bought reagent coated on the ELISA plate; not shown: Fc tag of the bought protein
# T2 sequence (looked up): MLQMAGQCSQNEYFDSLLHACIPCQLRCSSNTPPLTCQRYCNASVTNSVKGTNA
# B1: anti-human BCMA HCAb monoclonal antibody PR001046 (antibody, human IgG1, V domains shown)
# VH: EVQLVETGGGLIQPGGSLRLSCAASGFTVSDNYMTWVRQAPGKGLEWVSVIFSGGNTYYADSVKGRFTISRDNAKNTLYLQMNSLRAEDTALYYCARRNYDDTRGTDVFDIWGQGTMVTVSS
# notes: also called PRO01046; HBM1005P63B7
# B2: positive control 1, PR000274 (anti-BCMA antibody CA8-J6M0 hIgG1) (antibody, V domains shown)
# VH: QVQLVQSGAEVKKPGSSVKVSCKASGGTFSNYWMHWVRQAPGQGLEWMGATYRGHSDTYYNQKFKGRVTITADKSTSTAYMELSSLRSEDTAVYYCARGAIYDGYDVLDNWGQGTLVTVSS
# VL: DIQMTQSPSSLSASVGDRVTITCSASQDISNYLNWYQQKPGKAPKLLIYYTSNLHSGVPSRFSGSGSGTDFTLTISSLQPEDFATYYCQQYRKLPWTFGQGTKLEIKR
# notes: Full-length hIgG1 control antibody
# B3: BCMA x CD3 bispecific antibody PR002299 (bispecific antibody, human IgG1, lambda, L234A L235A)
# heavy 1: EVQLLESGGGLVQPGGSLRLSCAASGFTFSTYAMNWVRQAPGKGLEWVSRIRSKYNNYATYYADSVKDRFTISRDDSKSTLYLQMNSLRAEDTAVYYCVRHGNFGNSYVSWFAYWGQGTLVTVSSASTKGPSVFPLAPSSKSTSGGTAALGCLVKDYFPEPVTVSWNSGALTSGVHTFPAVLQSSGLYSLSSVVTVPSSSLGTQTYICNVNHKPSNTKVDKKVEPKSCDKTHTCPPCPAPEAAGGPSVFLFPPKPKDTLMISRTPEVTCVVVDVSHEDPEVKFNWYVDGVEVHNAKTKPREEQYNSTYRVVSVLTVLHQDWLNGKEYKCKVSNKALGAPIEKTISKAKGQPREPQVYTLPPCREEMTKNQVSLWCLVKGFYPSDIAVEWESNGQPENNYKTTPPVLDSDGSFFLYSKLTVDKSRWQQGNVFSCSVMHEALHNHYTQKSLSLSPGK
# light: QAVVTQEPSLTVSPGGTVTLTCRSSTGAVTTSNYANWVQQKPGQAPRGLIGGTNKRAPWTPARFSGSLLGDKAALTLLGAQPEDEAEYFCALWYSNLWVFGGGTKLTVLGQPKAAPSVTLFPPSSEELQANKATLVCLISDFYPGAVTVAWKADSSPVKAGVETTTPSKQSNNKYAASSYLSLTPEQWKSHRSYSCQVTHEGSTVEKTVAPTECS
# heavy 2: EVQLLESGGGLVQPGGSLRLSCAASGFTFSSYAMIWVRQAPGKGLEWVSGISESGGSTYYADSVKGRFTISRDNSKNTLYLQMNSLRAEDTAVYFCVKDLDDILTGYYKDYWGQGTLVTVSSRTGGGGSKLEVQLLESGGGLVQPGGSLRLSCAASGFTFSSYAMIWVRQAPGKGLEWVSGISESGGSTYYADSVKGRFTISRDNSKNTLYLQMNSLRAEDTAVYFCVKDLDDILTGYYKDYWGQGTLVTVSSASEPKSSDKTHTCPPCPAPEAAGGPSVFLFPPKPKDTLMISRTPEVTCVVVDVSHEDPEVKFNWYVDGVEVHNAKTKPREEQYNSTYRVVSVLTVLHQDWLNGKEYKCKVSNKALGAPIEKTISKAKGQPREPQVCTLPPSREEMTKNQVSLSCAVKGFYPSDIAVEWESNGQPENNYKTTPPVLDSDGSFFLVSKLTVDKSRWQQGNVFSCSVMHEALHNHYTQKSLSLSPGK
# What was measured:
# [1] = target: T3, cynomolgus monkey BCMA on cells (HEK293T/cynoBCMA) (cynomolgus monkey, UniProt A0A2K5UD97 1-183); assay: FACS on HEK293T cell strain overexpressing cynomolgus monkey BCMA [D]
# T3 construct: whole, on cells
# T3 sequence (A0A2K5UD97 entry or part of it): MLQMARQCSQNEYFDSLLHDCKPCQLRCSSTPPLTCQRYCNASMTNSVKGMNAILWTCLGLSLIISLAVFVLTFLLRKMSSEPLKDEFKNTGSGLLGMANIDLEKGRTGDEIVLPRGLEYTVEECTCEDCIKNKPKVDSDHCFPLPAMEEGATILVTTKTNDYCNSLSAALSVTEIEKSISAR
# Description: (§1) This example was conducted to study the binding activity of anti human BCMA HCAb monoclonal antibodies to human and cynomolgus monkey BCMA in vitro. HEK293T cell strain (HEK293T/huBCMA, Beijing Kang yuan) overexpressing human BCMA, HEK293T cell strain (HEK293T/cynoBCMA, Beijing Kang yuan) overexpressing cynomolgus monkey BCMA and NCI- H929 cell line (ATCC® CRL-9068TM) highly expressing human BCMA were used for antibody binding assay at cellular level. Briefly, HEK293T/huBCMA cells and HEK293T/cynoBCMA cells were digested and resuspended with DMEM complete medium, and NCI-H929 cell suspensions were collected by resuspension with DMEM complete medium. The density of the three cells was adjusted to 1×10⁶ cells/mL, respectively. The cells were inoculated at 100 μL cells/well in 96 well V-bottom plates (Corning, Cat#: 3894), followed by the addition of test antibodies at 100 μL/well, which is gradient diluted at 3 folds of the concentration with 2 folds of the final concentration. Cells were incubated at 4° C. for 1 hours in the dark. Afterwards, the cells were washed twice with 100 μL/well of pre-cooled PBS, centrifuged at 500 g for 5 min at 4° C. and followed by discarding the supernatant. […] Finally, the cells were resuspended with 200 μL/well of pre-cooled PBS and the fluorescent luminescence signal values were read by using BD FACS CANTOII.
# [2] = target: T1, human BCMA on cells (HEK293T/huBCMA; …); assay: FACS on NCI-H929 cell line [D]
# Description: as §1
# [3] = target: T2, human BCMA protein with Fc Tag (ACRO, …); assay: ELISA, plate coated with human BCMA-Fc; antibody blocks the binding of biotinylated human BAFF [B]
# Description: This example was conducted to evaluate the blockage ability of anti-human BCMA HCAb monoclonal antibody to the binding of human BCMA (ACRO, BCA-H522y-100 μg) with ligand BAFF protein (ACRO, BAF-H5248-50 μg). The BAFF protein was biotinylated by using a biotinylation kit (ThermoFisher, A39257, EZ-Link Sulfo-NHS-LC-Biotin) according to the instructions. The plates (Corning, Cat#: 9018) were coated with 1 μg/mL of human BCMA protein with Fc Tag (ACRO, Cat#: BC7-H5254) overnight. The plates were washed for 3 times with PBST, added with 2% BSA and then sealed at room temperature for 1 hour. The plates were washed with PBST for 3 times, and added with test antibody gradient diluted at 3 folds concentration 100 μL/well, with an initial concentration of 50 nM. After being incubated for 1h, the supernatant was discarded and 0.5 μg/mL of biotinylated human BAFF protein (prepared according to conventional methods in the art) was added to the plates at 100 μL/well. The plates were incubated at room temperature for 1 h and discarded the supernatant. Streptavidin-coupled HRP (Bio-RAD, Cat#: 1610380) with 1: 4000 diluted was added at 100 μL/well. The plates were incubated for 1 h at room temperature and washed with PBST for 3 times. […] OD450 values were read by using Enspire (Perkin Elmer).
# [4] = target: T1, human BCMA on cells (HEK293T/huBCMA; …); assay: FACS on HEK293T cell strain overexpressing human BCMA [D]
# Description: as §1
# [5] = target: T1, human BCMA on cells (HEK293T/huBCMA; …); assay: FACS on NCI-H929 cell line [B]
# Description: To study the binding activity of the BCMA arm of the BCMA×CD3 bispecific antibody to human BCMA, NCI-H929 cell line with highly expressed BCMA was used for binding experiments with human BCMA at cellular level. Briefly, NCI-H929 cell suspensions were collected. The cell density was adjusted to 1×10⁶ cells/mL, and the cells were inoculated in 96 well V-bottom plates at 100 μL cells/well (Corning, Cat#: 3894), followed by the addition of test antibodies at 100 μL/well, which is gradient diluted at 3 folds of the concentration with 2 folds of the final concentration. Cells were incubated at 4° C. for 2 hours in the dark. Afterwards, cells were washed twice with 100 μL/well of pre-cooled PBS, centrifuged at 500 g for 5 min at 4° C., and followed by discarding the supernatant. 100 μL/well of fluorescent secondary antibody (Alexa Fluor 488-conjugated AffiniPure Goat Anti-Human IgG, Fcγ Fragment Specific, Jackson, Cat#:109-545-06, 1:500 dilution) was added and incubated at 4° C. for 1 hour in the dark. Cells were washed twice with 100 μL/well of pre-cooled PBS, centrifuged at 500 g, 4° C. for 5 min, and followed by discarding the supernatant. Finally, the cells were resuspended with 200 μL/well of pre-cooled PBS, and the fluorescence luminescence signal values were read by BD FACS CANTOII.
Binder,EC50 [1] [nM],EC50 [2] [nM],IC50 [3] [nM],EC50 [4] [nM],EC50 [5] [nM]
B1,0.564,1.53,2.94,0.213,
B2,4.56,10.8,4.36,4.07,
B3,,,,,57.2
